Data reported in the RNAGym collection of RNA variant scans (doi:10.1073/pnas.2313332121).

B1: TPR t1 (parent)
chain: GACCAAUCUGCCCUCAGAGCUCGAGAACAUCUUCGGAUGCAGAGGAGGCAGGCUUCGGUGGCGCGAUAGCGCCAACGUCCUCAACCUCCAAUGCAUCCCACCACAUGAUGAUGCCUGAAGAGCCUUGGUUUUUUG

Variants of: B1
Test: polymerase ribozyme fitness, log enrichment relative to wild type (log ratio); higher = more active; in vitro selection for triplet polymerase activity
Outline: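 Both subunits of a heterodimeric triplet polymerase ribozyme were given their own mutant library, built by PCR and transcribed. Each library was annealed with a biotinylated primer, the partner subunit and triplets, incubated frozen at −7 °C, and its extended constructs gel-excised, captured on streptavidin beads and amplified by RT-PCR, all in one round done in triplicate. Fitness is the logarithm of genotype enrichment relative to wild-type enrichment, with replicates averaged by inverse-variance weighting. That logarithm is base 2, and Illumina-sequenced genotypes needed ≥10 input reads and ≥1 read per output.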

Row | Variant | polymerase ribozyme fitness (log ratio)
1 | A5G C40U G45U A50C U125A | -4.22
2 | A5G C40U G69U A100G | -1.21
3 | A5G C49A C53U C85A G135U | -3.84
4 | A5G C56A A74G C97U C123A | 0.643
5 | A5G C56G | -0.49
6 | A5G C62A G117C | -4.86
7 | A5G C62U C88G U112C C123A C124A U130A | 0.112
8 | A5G C64U | 0.17
9 | A5G C64U C85U | -1.64
10 | A5G C72A | 0.0113
11 | A5G C82U C97U C124G U126A | -0.153
12 | A5G C88A A91C C114G A121C | -0.389
13 | A5G C89G | -1.15
14 | A5G C104A G113C | -4.37
15 | A5G C104U G117C U130G | -3.77
16 | A5G C124A | 1.03
17 | A5G G10A C15A G23C U32G C64A G128C U130C | -6.17
18 | A5G G19A C72U U87A G117U | -4.71
19 | A5G G36U G61A A111C A119C | -2.68
20 | A5G G42U C115U | -1.79
21 | A5G G44A G45U G63U C79U C124A | -1.7

Row | Variant | polymerase ribozyme fitness (log ratio)
22 | A5G G44C C82A | -2.23
23 | A5G G44U G52A | -2
24 | A5G G45A | -0.52
25 | A5G G48C G63A G117C | -6.49
26 | A5G G48U C73A C97A | -5.81
27 | A5G G51U A83U A121C | -3.06
28 | A5G G117C | -3.71
29 | A5G G120C | 0.0754
30 | A5G G135U | -1.22
31 | A5G U9A G52U | -1.25
32 | A5G U9G A111U U126A | -3.21
33 | A5G U14A C73U | -2.23
34 | A5G U32C C40U C99U A100U | -5.33
35 | A5G U112A G127U | 0.804
36 | A5G U112C C124G G128A | -0.522
37 | A5U A6C G47A | -1.7
38 | A5U A6G A46C G61A C115G | -2.35
39 | A5U A6U C62G C104U | -1.25
40 | A5U A16C | -2.72
41 | A5U A18C | -1.31
42 | A5U A27U | -3.65

Row | Variant | polymerase ribozyme fitness (log ratio)
43 | A5U A29C U78G C101U | -3.29
44 | A5U A41U G61A C82G G120A U125G | -2.7
45 | A5U A43U G63A | -3.99
46 | A5U A83C | -0.98
47 | A5U A95U | -1.24
48 | A5U C8A | 0.0555
49 | A5U C8G C20U C40A | -3.31
50 | A5U C8G G63U | -0.752
51 | A5U C11A G42C C88U U106A A121C U125A | -1.65
52 | A5U C11A G42C G63A C88U U106A A121C U125A | -5.18
53 | A5U C11A G58U C70U C101U | -2.57
54 | A5U C11G A16U G60U U87A A103C | -5.47
55 | A5U C11G C64U U78C U126C | -0.928
56 | A5U C12U G71U C114A G128A | -4.71
57 | A5U C12U U78C C80U | -1.23
58 | A5U C12U U125A | -0.727
59 | A5U C13A C15G C56A A121U | -1.44
60 | A5U C15A | -2.36
61 | A5U C15U A16U U125A | -4.8
62 | A5U C22A | -3.71
63 | A5U C22G A66U U112A U126G | -3.51

Row | Variant | polymerase ribozyme fitness (log ratio)
64 | A5U C31A G71A A84C C124A | -6.43
65 | A5U C31U G110C | -6.73
66 | A5U C40A C115G G120A | -3.72
67 | A5U C40G G71U U87G | -3.8
68 | A5U C49A A95G | -0.603
69 | A5U C53A C62A G110U U130C | -4.41
70 | A5U C53A C72U C104U G113C | -2.38
71 | A5U C56A | -0.829
72 | A5U C56A C102A U116C | -5.7
73 | A5U C64G C88G C104A A121G | -7.55
74 | A5U C70A C97U U125A | -2.48
75 | A5U C72G | -0.174
76 | A5U C72G G117A | -1.96
77 | A5U C72U G128U | -2.15
78 | A5U C73A | -0.847
79 | A5U C86G | -1.26
80 | A5U C88G G117A G120C | -4.11
81 | A5U C88G G120C | 0.286
82 | A5U C114A G122U | -1.76
83 | A5U C124A | 2.04
